This is an account of results in the supplement of paper PMC5998384.

In data set [1] the test system is HeLa Kyoto. Briefly: melting temperature (median over replicates), in situ; higher = more thermally stable.
The test system of data set [2] is HeLa Kyoto. As to the kind of experiment: thermal stability score vs G1/S (z-score of summed log2 fold changes over temperatures); higher = more thermally stable than in G1/S.
In data set [3] the test system is HeLa Kyoto. As to the kind of experiment: solubility change mitosis vs G1/S (difference of NP-40 vs SDS log2 ratios) (log2 ratio difference); higher = more soluble in mitosis.
In data set [4] the test system is HeLa Kyoto. As to the kind of experiment: solubility in G1/S (NP-40 vs SDS abundance) (log2 ratio); higher = more soluble. The conditions noted are these: cell cycle stage: G1/S.
Where [5] appears, read: cell cycle stage: early G1 (4.5 h after nocodazole release).
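For melting temperature (median over replicates), in situ in this document: HeLa Kyoto cells synchronized by double thymidine or nocodazole block, proteins quantified by TMT10plex mass spectrometry, three independent biological replicates.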
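For solubility change mitosis vs G1/S (difference of NP-40 vs SDS log2 ratios) in this document: synchronized HeLa Kyoto cells (double thymidine block for G1/S, nocodazole release for mitosis), protein amounts in NP-40 versus SDS lysates quantified by mass spectrometry, three biological replicates.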
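For solubility in G1/S (NP-40 vs SDS abundance) in this document: HeLa Kyoto cells arrested at G1/S by double thymidine block, proteins quantified by TMT10plex mass spectrometry in mild NP-40 versus SDS extracts, three biological replicates.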
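For thermal stability score vs G1/S (z-score of summed log2 fold changes over temperatures) in this document: synchronized HeLa Kyoto cells, proteins quantified by TMT10plex mass spectrometry, three biological replicates, mitosis taken 0.5 h after nocodazole release, G1/S directly after double thymidine block.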

Chain of PELP1 (chain, as listed by the source): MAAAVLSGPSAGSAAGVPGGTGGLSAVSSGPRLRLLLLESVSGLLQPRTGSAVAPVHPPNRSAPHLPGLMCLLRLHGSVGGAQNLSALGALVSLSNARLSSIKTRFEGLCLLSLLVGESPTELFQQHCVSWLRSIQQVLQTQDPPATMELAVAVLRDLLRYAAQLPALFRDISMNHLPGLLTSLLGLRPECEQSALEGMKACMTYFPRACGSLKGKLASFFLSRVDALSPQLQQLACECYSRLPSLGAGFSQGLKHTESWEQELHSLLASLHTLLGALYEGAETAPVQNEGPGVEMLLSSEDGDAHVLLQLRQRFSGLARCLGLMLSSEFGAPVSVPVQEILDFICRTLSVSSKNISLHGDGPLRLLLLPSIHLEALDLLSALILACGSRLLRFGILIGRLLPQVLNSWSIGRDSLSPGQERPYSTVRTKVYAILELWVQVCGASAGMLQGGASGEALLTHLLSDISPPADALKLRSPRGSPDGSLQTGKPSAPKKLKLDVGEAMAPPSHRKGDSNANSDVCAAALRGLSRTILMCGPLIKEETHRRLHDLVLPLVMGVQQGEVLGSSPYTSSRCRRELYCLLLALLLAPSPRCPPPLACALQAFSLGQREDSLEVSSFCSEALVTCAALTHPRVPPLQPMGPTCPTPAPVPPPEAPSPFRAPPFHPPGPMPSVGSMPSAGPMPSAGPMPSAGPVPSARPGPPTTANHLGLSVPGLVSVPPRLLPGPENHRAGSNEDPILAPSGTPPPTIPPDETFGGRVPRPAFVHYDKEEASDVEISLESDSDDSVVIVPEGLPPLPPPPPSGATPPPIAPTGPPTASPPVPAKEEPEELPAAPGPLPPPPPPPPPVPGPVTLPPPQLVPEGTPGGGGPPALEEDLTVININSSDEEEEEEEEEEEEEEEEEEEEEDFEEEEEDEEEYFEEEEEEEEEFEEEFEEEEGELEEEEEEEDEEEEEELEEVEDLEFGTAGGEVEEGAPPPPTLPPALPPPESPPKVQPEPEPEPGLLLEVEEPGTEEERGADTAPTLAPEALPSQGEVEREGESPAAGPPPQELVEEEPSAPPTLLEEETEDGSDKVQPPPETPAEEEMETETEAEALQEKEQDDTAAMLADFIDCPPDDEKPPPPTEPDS

Turning to “MMCEVMPTISEAEGPPGGGGGHGSGSPSQPDADSHFEQLMVSMLEERDRLLDTLRETQETLALTQGKLHEVGHERDSLQRQLNTALPQEFAALTKELNVCREQLLEREEEIAELKAERNNTRLLLEHLECLVSRHERSLRMTVVKRQAQSPAGVSSEVEVLKALKSLFEHHKALDEKVRERLRVALERCSLLEEELGATHKELMILKEQNNQKKTLTDGVLDINHEQENTPSTSGKRSSDGSLSHEEDLAKVIELQEIISKQSREQSQMKERLASLSSHVTELEEDLDTARKDLIKSEEMNTKLQRDVREAMAQKEDMEERITTLEKRYLAAQREATSVHDLNDKLENEIANKDSMHRQTEDKNRQLQERLELAEQKLQQTLRKAETLPEVEAELAQRVAALSKAEERHGNIEERLRQMEAQLEEKNQELQRARQREKMNEEHNKRLSDTVDKLLSESNERLQLHLKERMAALEDKNSLLREVESAKKQLEETQHDKDQLVLNIEALRAELDHMRLRGASLHHGRPHLGSVPDFRFPMADGHTDSYSTSAVLRRPQKGRLAALRDEPSKVQTLNEQDWERAQQASVLANVAQAFESDADVSDGEDDRDTLLSSVDLLSPSGQADAHTLAMMLQEQLDAINKEIRLIQEEKENTEQRAEEIESRVGSGSLDNLGRFRSMSSIPPYPASSLASSSPPGSGRSTPRRIPHSPAREVDRLGVMTLLPPSREEVRDDKTTIKCETSPPSSPRALRLDRLHKGALHTVSHEDIRDIRNSTGSQDGPVSNPSSSNSSQDSLHKAPKKKGIKSSIGRLFGKKEKGRPGQTGKEALGQAGVSETDNSSQDALGLSKLGGQAEKNRKLQKKHELLEEARRQGLPFAQWDGPTVVVWLELWVGMPAWYVAACRANVKSGAIMSALSDTEIQREIGISNPLHRLKLRLAIQEIMSLTSPSAPPTSRTTLAYGDMNHEWIGNEWLPSLGLPQYRSYFMECLVDARMLDHLTKKDLRGQLKMVDSFHRNSFQCGIMCLRRLNYDRKELERKREESQSEIKDVLVWSNDRVIRWILSIGLKEYANNLIESGVHGALLALDETFDFSALALLLQIPTQNTQARAVLEREFNNLLVMGTDRRFDEDDDKSFRRAPSWRKKFRPKDIRGLAAGSAETLPANFRVTSSMSSPSMQPKKMQMDGNVSGTQRLDSATVRTYSC [PPFIA1]”, the results for the melting temperature in data set [1] (cell cycle stage: G1/S) and in data set [1] (cell cycle stage: mitosis) were 49.8 °C and 50.2 °C, respectively. Further, the thermal stability score in data set [2] (setting [5]) came out at 1.52; in data set [2] (cell cycle stage: mitosis), 1.91. Besides, the “solubility change mitosis (log2)” value in data set [3] was -0.0196. Further, in data set [4], the “solubility in G1/S (log2)” value amounted to 0.137.
In the case of PELP1, the melting temperature worked out at 55.2 °C in data set [1] (cell cycle stage: G1/S) and 53.8 °C in data set [1] (cell cycle stage: mitosis). Also, the thermal stability score in data set [2] (setting [5]) was -1.93; in data set [2] (cell cycle stage: mitosis) it was -5.97. Moreover, in data set [3], the “solubility change mitosis (log2)” value amounted to 0.451. The “solubility in G1/S (log2)” value in data set [4] was -1.2.
Consider “MGKKGKVGKSRRDKFYHLAKETGYRSRSAFKLIQLNRRFQFLQKARALLDLCAAPGGWLQVAAKFMPVSSLIVGVDLVPIKPLPNVVTLQQDITTERCRQALRKELKTWKVDVVLNDGAPNVGASWVHDAYSQAHLTLMALRLACDFLARGGSFITKVFRSRDYQPLLWIFQQLFRRVQATKPQASRHESAEIFVVCQGFLAPDKVDSKFFDPKFAFKEVEVQAKTVTELVTKKKPKAEGYAEGDLTLYHRTSVTDFLRAANPVDFLSKASEIMVDDEELAQHPATTEDIRVCCQDIRVLGRKELRSLLNWRTKLRRYVAKKLKEQAKALDISLSSGEEDEGDEEDSTAGTTKQPSKEEEEEEEEEQLNQTLAEMKAQEVAELKRKKKKLLREQRKQRERVELKMDLPGVSIADEGETGMFSLSTIRGHQLLEEVTQGDMSAADTFLSDLPRDDIYVSDVEDDGDDTSLDSDLDPEELAGVRGHQGLRDQKRMRLTEVQDDKEEEEEENPLLVPLEEKAVLQEEQANLWFSKGSFAGIEDDADEALEISQAQLLFENRRKGRQQQQKQQLPQTPPSCLKTEIMSPLYQDEAPKGTEASSGTEAATGLEGEEKDGISDSDSSTSSEEEESWEPLRGKKRSRGPKSDDDGFEIVPIEDPAKHRILDPEGLALGAVIASSKKAKRDLIDNSFNRYTFNEDEGELPEWFVQEEKQHRIRQLPVGKKEVEHYRKRWREINARPIKKVAEAKARKKRRMLKRLEQTRKKAEAVVNTVDISEREKVAQLRSLYKKAGLGKEKRHVTYVVAKKGVGRKVRRPAGVRGHFKVVDSRMKKDQRAQQRKEQKKKHKRK [FTSJ3]”, for which the melting temperature stood at 49.7 °C in data set [1] (cell cycle stage: G1/S) and 52 °C in data set [1] (cell cycle stage: mitosis). The values for the thermal stability score in data set [2] (setting [5]) and in data set [2] (cell cycle stage: mitosis) were 4.05 and 7.76, respectively. The “solubility change mitosis (log2)” value in data set [3] was determined as 1.11. Besides, the “solubility in G1/S (log2)” value in data set [4] was -2.41.
On to “MESSRGRPGPETDLLAVAEHQALVFGGGPGRTSSEPPAGLRVSGEEETENVGGANRHPRTSPKTSSCGVVHRPEREALENEPGPQGTLSGAGSRRGAPGAEHEPSLSSRHKNPAPPEGKPSSGRDCRRGGPGGGMDVEQQEEEDNDEEAAAGSRAGRSFSSRLQDSRSLDGLSEACGGAGSSGSAESGAGGGRRATISSPLELEGTVSRHGDLTHFVANNLQLKIRLSGAPPPPPSAPARPCPAPAPTPTPAIPPIDPEVLRDLERLSRELGGRVDRLLRGLGGAVQELTALSVGCIQTYRDAVDSLGEAVDMSIKGMYTLLARCEELERALQPVQGLARQVRDIRRTLEVLEALCK [C17ORF59]”, for which the melting temperature in data set [1] (cell cycle stage: G1/S) is 53.5 °C; in data set [1] (cell cycle stage: mitosis), 53.8 °C. Also, the values for the thermal stability score in data set [2] (setting [5]) and in data set [2] (cell cycle stage: mitosis) were -2.61 and -1.39, respectively. Further, the “solubility change mitosis (log2)” value in data set [3] was -0.0139. For the same substance, the “solubility in G1/S (log2)” value in data set [4] amounted to 0.166.
Consider “MSLLRSLRVFLVARTGSYPAGSLLRQSPQPRHTFYAGPRLSASASSKELLMKLRRKTGYSFVNCKKALETCGGDLKQAEIWLHKEAQKEGWSKAAKLQGRKTKEGLIGLLQEGNTTVLVEVNCETDFVSRNLKFQLLVQQVALGTMMHCQTLKDQPSAYSKGFLNSSELSGLPAGPDREGSLKDQLALAIGKLGENMILKRAAWVKVPSGFYVGSYVHGAMQSPSLHKLVLGKYGALVICETSEQKTNLEDVGRRLGQHVVGMAPLSVGSLDDEPGGEAETKMLSQPYLLDPSITLGQYVQPQGVSVVDFVRFECGEGEEAAETE [TSFM]”, for which the melting temperature in data set [1] (cell cycle stage: G1/S) stood at 47.6 °C; in data set [1] (cell cycle stage: mitosis), 48.9 °C. In addition, the values for the thermal stability score in data set [2] (setting [5]) and in data set [2] (cell cycle stage: mitosis) were -0.0634 and 3.2, respectively. Moreover, in data set [3], the “solubility change mitosis (log2)” value is -0.0285. The “solubility in G1/S (log2)” value in data set [4] is 0.283.
